{
  "source": "patent US9937235B2",
  "about": "“Lipidated peptides as anti-obesity agents” (USTAV ORGANICKE CHEMIE A BIOCHEMIE AKADEMIE VED CR, V.V.I, priority 2012, dated 2018)",
  "note": "Where no end group is shown, it is not given here. [ ]: non-standard residue; d: D form. The star is where a group is joined. Palmitoyl = CCCCCCCCCCCCCCCC(=O)*; Myristoyl = CCCCCCCCCCCCCC(=O)*; Nle = CCCC[C@H](N)C(=O)O",
  "data": [
    {"target": "T1, rat PrRP receptor in RC-4B/C cells (rat, UniProt Q64121 1-370)", "T1 construct": "whole, on cells; also called the rat receptor; GPR10", "T1 sequence (looked up)": "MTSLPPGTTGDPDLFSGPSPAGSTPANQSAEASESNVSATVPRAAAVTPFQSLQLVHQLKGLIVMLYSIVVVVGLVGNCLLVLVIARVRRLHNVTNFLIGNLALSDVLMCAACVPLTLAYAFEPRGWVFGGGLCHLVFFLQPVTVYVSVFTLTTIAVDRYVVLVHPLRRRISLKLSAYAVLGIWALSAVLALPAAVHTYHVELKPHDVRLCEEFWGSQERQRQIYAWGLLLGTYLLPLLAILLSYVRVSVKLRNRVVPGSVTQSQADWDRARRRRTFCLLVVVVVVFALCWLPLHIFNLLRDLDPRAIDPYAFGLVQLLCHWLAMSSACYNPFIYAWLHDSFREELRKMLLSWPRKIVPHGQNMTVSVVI", "test": "competition with 125I-rat PrRP31 on RC-4B/C cells", "protocol": "The rat pituitary cell line RC-4B/C (ATCC, Manassas, USA) was grown on 24-well plates which had their bottom coated with polyethyleneimine. The cells were grown to the optimal density of 300-450 thousand per well.\nPlates were incubated for 60 minutes at room temperature. After incubation, the cells were solubilized in 0.1 mol/l solution of NaOH and the radioactivity bound to the cells was counted using a γ-counter. The experiments were performed in duplicate and repeated at least three times.\nFor evaluation of competitive binding experiments, the program Graph Pad Prism Software (San Diego, Calif., USA) was used. A method of nonlinear regression assuming one-site binding was used.", "units": {"Ki": "µM"}, "values": [
      {"binder": "Myristoyl-SRAHQHSMETRTPDINPAWYTGRGIRPVGRF-NH2 (SMILES CCCCCCCCCCCCCC(=O)N[C@@H](CO)C(=O)N[C@@H](CCCNC(=N)N)C(=O)N[C@@H](C)C(=O)N[C@@H](Cc1c[nH]cn1)C(=O)N[C@@H](CCC(N)=O)C(=O)N[C@@H](Cc1c[nH]cn1)C(=O)N[C@@H](CO)C(=O)N[C@@H](CCSC)C(=O)N[C@@H](CCC(=O)O)C(=O)N[C@H](C(=O)N[C@@H](CCCNC(=N)N)C(=O)N[C@H](C(=O)N1CCC[C@H]1C(=O)N[C@@H](CC(=O)O)C(=O)N[C@H](C(=O)N[C@@H](CC(N)=O)C(=O)N1CCC[C@H]1C(=O)N[C@@H](C)C(=O)N[C@@H](Cc1c[nH]c2ccccc12)C(=O)N[C@@H](Cc1ccc(O)cc1)C(=O)N[C@H](C(=O)NCC(=O)N[C@@H](CCCNC(=N)N)C(=O)NCC(=O)N[C@H](C(=O)N[C@@H](CCCNC(=N)N)C(=O)N1CCC[C@H]1C(=O)N[C@H](C(=O)NCC(=O)N[C@@H](CCCNC(=N)N)C(=O)N[C@@H](Cc1ccccc1)C(N)=O)C(C)C)[C@@H](C)CC)[C@@H](C)O)[C@@H](C)CC)[C@@H](C)O)[C@@H](C)O)", "note": "[analog no. 60]", "Ki": 0.00075},
      {"binder": "Palmitoyl-SRAHQHSMETRTPDINPAWYTGRGIRPVGRF-NH2 (SMILES CCCCCCCCCCCCCCCC(=O)N[C@@H](CO)C(=O)N[C@@H](CCCNC(=N)N)C(=O)N[C@@H](C)C(=O)N[C@@H](Cc1c[nH]cn1)C(=O)N[C@@H](CCC(N)=O)C(=O)N[C@@H](Cc1c[nH]cn1)C(=O)N[C@@H](CO)C(=O)N[C@@H](CCSC)C(=O)N[C@@H](CCC(=O)O)C(=O)N[C@H](C(=O)N[C@@H](CCCNC(=N)N)C(=O)N[C@H](C(=O)N1CCC[C@H]1C(=O)N[C@@H](CC(=O)O)C(=O)N[C@H](C(=O)N[C@@H](CC(N)=O)C(=O)N1CCC[C@H]1C(=O)N[C@@H](C)C(=O)N[C@@H](Cc1c[nH]c2ccccc12)C(=O)N[C@@H](Cc1ccc(O)cc1)C(=O)N[C@H](C(=O)NCC(=O)N[C@@H](CCCNC(=N)N)C(=O)NCC(=O)N[C@H](C(=O)N[C@@H](CCCNC(=N)N)C(=O)N1CCC[C@H]1C(=O)N[C@H](C(=O)NCC(=O)N[C@@H](CCCNC(=N)N)C(=O)N[C@@H](Cc1ccccc1)C(N)=O)C(C)C)[C@@H](C)CC)[C@@H](C)O)[C@@H](C)CC)[C@@H](C)O)[C@@H](C)O)", "note": "[analog no. 61]", "Ki": 0.00041},
      {"binder": "Myristoyl-[code f][code r]GVPRIGRGTYWAPNIDPT-NH2", "note": "[analog no. 37]", "Ki": 0.364},
      {"binder": "SHQRPADTHWYPRG[Nle]FPTIGRITARNGEVSR (printed without a C-terminal amide)", "note": "[analog no. 30]", "Ki": 1320}
    ]}
  ]
}
